Data on 5 molecules can be found in patent US20210253718A1 (MODMAB THERAPEUTICS, published 2021).

For test [1], the target named is T1, FZD2 cysteine-rich domain (CRD), MYC-tagged and GPI-anchored on CHO cells (human, UniProt Q14332 35-161). In words: flow cytometry, CHO-CRD cells.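 Further: flow cytometry of Fab binding to CHO cells overexpressing a Frizzled CRD, with binding defined as median fluorescence over twice that of CHO cells lacking any Frizzled CRD.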 A general note: A flow cytometer gives signals particle by particle.
Protocol: (§1) Binding was measured via flow cytometry analysis of CHO cells overexpressing CRD of FZD1, FZD2, FZD3, FZD4, FZD5, FZD6, FZD7, FZD8, FZD9 or FZD10. Median fluorescence values are shown.
The target of test [2] is T2, FZD3 cysteine-rich domain (CRD), MYC-tagged and GPI-anchored on CHO cells (human, UniProt Q9NPG1 24-150, GPI anchor).
T2 construct: domain: cysteine-rich domain (CRD); also called FZD3 CRD; CHO-myc-FZDGPI; not shown: MYC tag and GPI anchor signal
T2 sequence (looked up): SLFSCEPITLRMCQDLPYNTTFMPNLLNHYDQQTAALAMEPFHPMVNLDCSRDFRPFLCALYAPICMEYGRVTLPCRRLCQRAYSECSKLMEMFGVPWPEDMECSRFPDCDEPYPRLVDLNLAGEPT
The experiment in a line: flow cytometry, CHO-CRD cells.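 Further: flow cytometry of Fab binding to CHO cells overexpressing a Frizzled CRD, with binding defined as median fluorescence over twice that of CHO cells lacking any Frizzled CRD.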

Test [3] addresses T3, FZD4 cysteine-rich domain (CRD), MYC-tagged and GPI-anchored on CHO cells (human, UniProt Q9ULV1 42-167, GPI anchor).
T3 construct: also called FZD4 CRD; CHO-myc-FZDGPI; not shown: MYC tag and GPI anchor signal
T3 sequence: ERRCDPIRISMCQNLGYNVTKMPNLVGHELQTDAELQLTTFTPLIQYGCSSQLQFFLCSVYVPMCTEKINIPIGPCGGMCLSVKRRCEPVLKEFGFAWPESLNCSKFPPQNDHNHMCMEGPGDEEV
The experiment in a line: flow cytometry, CHO-CRD cells.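 Further: flow cytometry of Fab binding to CHO cells overexpressing a Frizzled CRD, with binding defined as median fluorescence over twice that of CHO cells lacking any Frizzled CRD.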

The target in test [4] is T4, FZD6 cysteine-rich domain (CRD), MYC-tagged and GPI-anchored on CHO cells (human, UniProt O60353 20-146, GPI anchor).
T4 construct: also called FZD6 CRD; CHO-myc-FZDGPI; not shown: MYC tag and GPI anchor signal
T4 sequence: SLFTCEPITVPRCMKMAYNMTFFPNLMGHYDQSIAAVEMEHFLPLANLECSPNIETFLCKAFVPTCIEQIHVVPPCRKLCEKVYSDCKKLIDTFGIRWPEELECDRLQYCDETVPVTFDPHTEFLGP
The experiment in a line: flow cytometry, CHO-CRD cells.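 Further: flow cytometry of Fab binding to CHO cells overexpressing a Frizzled CRD, with binding defined as median fluorescence over twice that of CHO cells lacking any Frizzled CRD.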

Test [5] concerns the target FZD7 cysteine-rich domain (CRD), MYC-tagged and GPI-anchored on CHO cells (human, UniProt O75084 45-169). In words: flow cytometry, CHO-CRD cells.
Protocol: as §1
In test [6] the target is T5, FZD9 cysteine-rich domain (CRD), MYC-tagged and GPI-anchored on CHO cells (human, UniProt O00144 35-161, GPI anchor).
T5 construct: also called FZD9 CRD; CHO-myc-FZDGPI; not shown: MYC tag and GPI anchor signal
T5 sequence: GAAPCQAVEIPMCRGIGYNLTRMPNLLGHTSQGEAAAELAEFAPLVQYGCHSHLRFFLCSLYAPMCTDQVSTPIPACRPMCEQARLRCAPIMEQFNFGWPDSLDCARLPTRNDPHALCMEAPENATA
In words: flow cytometry, CHO-CRD cells.

Test [7] has as its target T6, FZD10 cysteine-rich domain (CRD), MYC-tagged and GPI-anchored on CHO cells (human, UniProt Q9ULW2 30-156, GPI anchor).
T6 construct: also called FZD10 CRD; CHO-myc-FZDGPI; not shown: MYC tag and GPI anchor signal
T6 sequence: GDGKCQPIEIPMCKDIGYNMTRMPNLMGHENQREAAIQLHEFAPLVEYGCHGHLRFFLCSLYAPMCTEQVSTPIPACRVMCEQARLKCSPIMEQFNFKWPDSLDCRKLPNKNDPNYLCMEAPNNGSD
In words: flow cytometry, CHO-CRD cells.

Test [8] has as its target T1, FZD2 cysteine-rich domain (CRD), …. In words: immunofluorescence, CHO-CRD cells.
Test [9] has as its target T2, FZD3 cysteine-rich domain (CRD), …. The experiment in a line: immunofluorescence, CHO-CRD cells.
Test [10] concerns the target T3, FZD4 cysteine-rich domain (CRD), …. In words: immunofluorescence, CHO-CRD cells.
The target of test [11] is T4, FZD6 cysteine-rich domain (CRD), …. In words: immunofluorescence, CHO-CRD cells.
Test [12] addresses T5, FZD9 cysteine-rich domain (CRD), …. The experiment in a line: immunofluorescence, CHO-CRD cells.
The target in test [13] is T6, FZD10 cysteine-rich domain (CRD), …. The experiment in a line: immunofluorescence, CHO-CRD cells.
The target in test [14] is T7, FZD5 cysteine-rich domain (CRD), MYC-tagged and GPI-anchored on CHO cells (human, UniProt Q13467 29-156, GPI anchor).
T7 construct: also called FZD5 CRD; CHO-myc-FZDGPI; not shown: MYC tag and GPI anchor signal
T7 sequence: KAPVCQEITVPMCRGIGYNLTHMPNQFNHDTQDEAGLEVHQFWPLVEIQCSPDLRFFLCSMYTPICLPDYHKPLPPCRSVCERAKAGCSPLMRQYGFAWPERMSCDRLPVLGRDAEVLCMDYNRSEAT
The experiment in a line: flow cytometry, CHO-CRD cells.

Test [15] deals with T8, FZD8 cysteine-rich domain (CRD), MYC-tagged and GPI-anchored on CHO cells (human, UniProt Q498S8 31-155 (rat entry), GPI anchor).
T8 construct: also called FZD8 CRD; CHO-myc-FZDGPI; not shown: MYC tag and GPI anchor signal
T8 sequence: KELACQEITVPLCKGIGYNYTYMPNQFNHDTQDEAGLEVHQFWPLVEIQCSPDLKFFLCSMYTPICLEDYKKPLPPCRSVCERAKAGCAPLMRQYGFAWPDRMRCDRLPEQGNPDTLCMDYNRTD
In words: flow cytometry, CHO-CRD cells.

Test [16] addresses T9, FZD1 cysteine-rich domain (CRD), MYC-tagged and GPI-anchored on CHO cells (human). In words: flow cytometry, CHO-CRD cells.
Protocol: as §1
Test [17] has as its target T9, FZD1 cysteine-rich domain (CRD), …. In words: immunofluorescence, CHO-CRD cells.

B1: Fab-2917 (Fab, V domains shown)
VH: EVQLVESGGGLVQPGGSLRLSCAASGFNFSSSSIHWVRQAPGKGLEWVASISSSYGYTYYADSVKGRFTISADTSKNTAYLQMNSLRAEDTAVYYCARAVWYYWWVWGGFDYWGQGTLVTVSS
VL: DIQMTQSPSSLSASVGDRVTITCRASQSVSSAVAWYQQKPGKAPKLLIYSASSLYSGVPSRFSGSRSGTDFTLTISSLQPEDFATYYCQQSSYSLITFGQGTKVEIK
notes: Fab; also called Fv-2917
On to B1, for which the median fluorescence in test [1] came out at 5.57; in [2], 3.46; in test [3], 4.14; in test [4] it was 2.89; in test [5], 20.5; in test [6] it was 3.49. In test [7], this molecule registered a median fluorescence of 2.76. The binding result in test [8], in [9], in [10], in test [11], in [12] and in [13] was “no binding” throughout.

B2: Fab-2910 (Fab, V domains shown)
VH: EVQLVESGGGLVQPGGSLRLSCAASGFNISYSYMHWVRQAPGKGLEWVASIYSSSSSTSYADSVKGRFTISADTSKNTAYLQMNSLRAEDTAVYYCARGAMDYWGQGTLVTVSS
VL: DIQMTQSPSSLSASVGDRVTITCRASQSVSSAVAWYQQKPGKAPKLLIYSASSLYSGVPSRFSGSRSGTDFTLTISSLQPEDFATYYCQQWYGSHLITFGQGTKVEIK
notes: Fab
B2: the median fluorescence amounted to 4.47 in test [1]; 3.28 in test [2]; 5 in [3]; 30.5 in test [14]; 2.79 in test [4]; 10.2 in test [5]. Further, the median fluorescence in test [15] was 7.91; in test [6] it was 2.74; in test [7], 2.81. The binding result in test [8], in test [9], in [10], in test [11], in [12] and in test [13] was “no binding” in each case.

B3: Fab-2906 (Fab, V domains shown)
VH: EVQLVESGGGLVQPGGSLRLSCAASGFNFSSSSIHWVRQAPGKGLEWVAYISSSYGYTYYADSVKGRFTISADTSKNTAYLQMNSLRAEDTAVYYCARTVRGSKKPYFSGWAMDYWGQGTLVTVSS
VL: DIQMTQSPSSLSASVGDRVTITCRASQSVSSAVAWYQQKPGKAPKLLIYSASSLYSGVPSRFSGSRSGTDFTLTISSLQPEDFATYYCQQWSWGFLITFGQGTKVEIK
notes: Fab; also called Fv-2906
Turning to B3, the median fluorescence is 5.23 in test [16]; 5.09 in test [1]; 4.03 in test [2]; 30.2 in test [14]; 3.55 in test [4]; 2.92 in test [5]. Besides, the median fluorescence in test [15] stood at 10.1; in test [6], 5.05; in [7], 19.8. In addition, the binding result in [17], in test [8], in test [9], in test [11] and in test [12] was “no binding” each time.

B4: Fab-2929 (Fab, V domains shown)
VH: EVQLVESGGGLVQPGGSLRLSCAASGFNISYYYIHWVRQAPGKGLEWVASIYPSSSSTSYADSVKGRFTISADTSKNTAYLQMNSLRAEDTAVYYCARGAMDYWGQGTLVTVSS
VL: DIQMTQSPSSLSASVGDRVTITCRASQSVSSAVAWYQQKPGKAPKLLIYSASSLYSGVPSRFSGSRSGTDFTLTISSLQPEDFATYYCQQWYSSYGLITFGQGTKVEIK
notes: Fab; also called Fv-2929
In the case of B4, the median fluorescence came out at 4.29 in test [1]; 3.55 in [2]; 3.72 in [3]; 27.1 in [14]; 2.84 in test [4]; 13 in test [5]. Moreover, the median fluorescence in test [15] is 7.91; in test [6], 3.08; in [7], 2.64. For the same molecule, the binding result in test [8], in test [9], in [10], in test [11], in test [12] and in test [13] was “no binding” each time.

B5: Fab-2918 (Fab, V domains shown)
VH: EVQLVESGGGLVQPGGSLRLSCAASGFNLSYSSIHWVRQAPGKGLEWVASIYSSYSSTSYADSVKGRFTISADTSKNTAYLQMNSLRAEDTAVYYCARFGYWAIDYWGQGTLVTVSS
VL: DIQMTQSPSSLSASVGDRVTITCRASQSVSSAVAWYQQKPGKAPKLLIYSASSLYSGVPSRFSGSRSGTDFTLTISSLQPEDFATYYCQQAFGASLFTFGQGTKVEIK
notes: Fab; also called Fv-2918
As for B5, the median fluorescence in test [1] came out at 4.41; in test [2] it was 3.55; in [3] it was 4.07; in test [14], 29.2; in test [4] it was 2.69; in test [5], 7.5. The median fluorescence in [15] came out at 7.57; in [6] it was 3.11; in [7], 2.81. Besides, the binding result in [8], in test [9], in test [10], in [11], in test [12] and in test [13] was “no binding” throughout.
